Results: patent US10918730B2, “Pegylated bioactive peptides and uses thereof” (GRIFFON PHARMACEUTICALS INC., priority 2016, dated 2021)
Non-standard residues stand in square brackets, D forms with d. No end group written: not given here. hArg = N=C(N)NCCCC[C@H](N)C(=O)O; Orn = NCCC[C@H](N)C(=O)O

Key:
[1] = molecular target: T1, human GHRH receptor (Homo sapiens, UniProt Q02643); test: Hit Hunter (DiscoveRx) cAMP agonist assay in cells expressing GHRH receptor; format: cell-based; settings: for potency in words: Table 2 experiment, compared to native peptide; for in vitro biological activity in words: longer PEG chains at the 9th position
T1 sequence (Q02643 23-423): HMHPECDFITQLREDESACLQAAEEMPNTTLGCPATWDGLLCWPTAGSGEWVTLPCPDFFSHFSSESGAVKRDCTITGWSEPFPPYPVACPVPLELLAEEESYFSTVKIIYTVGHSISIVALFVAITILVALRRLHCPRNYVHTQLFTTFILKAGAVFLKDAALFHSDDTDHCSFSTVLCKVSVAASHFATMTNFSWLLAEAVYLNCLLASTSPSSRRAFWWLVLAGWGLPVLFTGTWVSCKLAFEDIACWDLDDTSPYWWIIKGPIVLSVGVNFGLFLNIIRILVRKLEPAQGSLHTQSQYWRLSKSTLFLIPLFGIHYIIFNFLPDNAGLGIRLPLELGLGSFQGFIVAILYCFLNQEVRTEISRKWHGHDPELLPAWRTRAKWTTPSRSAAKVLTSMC
Description: For agonist determination, cells were incubated with sample to induce response. Media was aspirated from cells and replaced with 15 μL 2:1 HBSS/10 mM Hepes:cAMP XS+ Ab reagent. […] Vehicle concentration was 1%. […] Microplates were read following signal generation with a PerkinElmer Envision™ instrument for chemiluminescent signal detection. Compound activity was analyzed using CBIS data analysis suite (ChemInnovation, CA).

[2] = tested on: Growth Hormone secretion; test: GH release kinetics after subcutaneous injection in Sprague-Dawley rats; format: in vivo; settings: female rats, single subcutaneous dose 0.04 mg/kg, FIG. 1; for GH AUC (0-90 min): plasma GH by ELISA
Text: Protocol: Sprague-Dawley rats (female, weighing from 250 to 300 g) were obtained from Charles River Inc. Animals were used according to a protocol of the Animal Care Committee along with the principles of the Guide for the Care and Use of Experimental Animals of the Canadian Council on Animal Care. The animals were maintained on standard laboratory chow under a 12:12 light:dark cycle. They were kept in groups of 4 rats per cage. The animals were anesthetized with isoflurane 2.5%. A mid-section opening was made in the neck to expose the carotid artery. The carotid artery was canulated with polypropylene tubing (PE-50) to allow blood withdrawal. After surgical preparation, rats received a subcutaneous injection of GHRH analog (10-100 μg/kg) dissolved in 20 mM AcONa+5% mannitol at pH 5). Blood samples (400 μL/time point) were collected from 2-4 animals per group. […] Blood was collected into microtainer tubes containing K3EDTA, mixed and immediately centrifuged at 13,000 RPM in a desktop centrifuge for 2 minutes. The plasma was collected and placed into a screw cap Eppendorf™ tube and quickly frozen in liquid nitrogen. The samples were then kept at −80° C. until assayed. Determination of GH levels was performed as described below.
Determination of GH levels in plasma samples: Rat and mouse plasma samples were vortexed carefully and centrifuged at 9,000 RPM for 2 min at 4° C. […] The remainder of the procedure was performed according to the manufacturers instructions, and the data obtained were analyzed using GraphPad Prism™ software. […] Growth hormone levels were determined in timed-aliquots of blood and are depicted in FIG. 1. […]
The N-terminal part of the GHRH peptide is known to be buried in the extracellular loops and transmembrane domains of the GHRH receptor, and thus almost all of the amino acids in the N-terminal domain participate in high affinity binding of the GHRH peptide to the receptor. […] Briefly, peptides (0.04 mg/kg) were subcutaneously injected in female rats and growth hormone levels were determined in timed aliquots of blood drawn from the animals.

For “YaDAIFTASYROVLAC(Peg-2K)LSAROALQDILSKN-NH2 (Y[dA]DAIFTASYR[Orn]VLAC(PEG 2 kDa)LSAR[Orn]ALQDILSKN-NH2) [Analog 9 (C16), Cys16 conjugated to about 2 kDa PEG]”, which potency in words [1] is on record?
Its potency in words is “reduced potency”.

How did the “in vitro biological activity in words” value ([1]; Table 3 experiment) turn out when “YaDAIFTAC(Peg-5K)YROVLAQLSAROALQDILS(Har)-NH2 (Y[dA]DAIFTACYR[Orn]VLAQLSAR[Orn]ALQDILS[hArg]-NH2; not fully specified (residue 9); printed as YaDAIFTAC(Peg-5K)YROVLAQLSAROALQDILS(Har)-NH2) [Analog 15 (C9), Cys9 conjugated to 5K PEG, Har29]” was run?
The value was “without loss of in vitro biological activity”.

With “YaDAIFTASYROVLC(Peg-2K)QLSAROALQDILSKN-NH2 (Y[dA]DAIFTASYR[Orn]VLC(PEG 2 kDa)QLSAR[Orn]ALQDILSKN-NH2) [Analog 5 (C15), Cys15 conjugated to about 2 kDa PEG]” as the compound, how does the potency in words [1] read?
Its potency in words is “reduced potency”.

How did the “GH AUC (0-90 min)” value [2] turn out when “YaDAIFTAC(Peg-2K)YROVLAQLSAROALQDILSKN-NH2 (Y[dA]DAIFTAC(PEG 2 kDa)YR[Orn]VLAQLSAR[Orn]ALQDILSKN-NH2) [Analog 6 (C9), Cys9 conjugated to about 2 kDa PEG]” was run?
Its value is 29075 ng/ml/90 min.

“YaDAIFTAC(Peg-2K)YROVLAQLSAROALQDILS(Har)-NH2 (Y[dA]DAIFTAC(PEG 2 kDa)YR[Orn]VLAQLSAR[Orn]ALQDILS[hArg]-NH2) [Analog 10 (C9), Cys9 conjugated to about 2 kDa PEG, Har29]” was tested. Which “fold more potent than the 5K and 40K Pegylated GHRH peptides (analogs 15 and 16)” value ([1]; Table 3 experiment) did it give?
The value was 2-6 fold.

And the “fold more potent than the native peptide” value ([1]; Table 3 experiment)?
The value was about 14 fold.

“YaDAIFTC(Peg-2K)SYROVLAQLSAROALQDILSKN-NH2 (Y[dA]DAIFTC(PEG 2 kDa)SYR[Orn]VLAQLSAR[Orn]ALQDILSKN-NH2) [Analog 7 (C8), Cys8 conjugated to about 2 kDa PEG]” was tested. Which “GH AUC (0-90 min)” value [2] did it give?
Its value is 15657 ng/ml/90 min.

And the potency in words [1]?
The potency in words was “reduced potency”.

With “YaDAIFTASYROVLAQLSC(Peg-2K)ROALQDILSKN-NH2 (Y[dA]DAIFTASYR[Orn]VLAQLSC(PEG 2 kDa)R[Orn]ALQDILSKN-NH2) [Analog 4 (C19), Cys19 conjugated to about 2 kDa PEG]” as the compound, how does the potency in words [1] read?
The potency in words was “reduced potency”.

With `CC[C@H](C)[C@H](NC(=O)[C@H](C)NC(=O)[C@H](CC(=O)O)NC(=O)[C@H](C)NC(=O)[C@@H](N)Cc1ccc(O)cc1)C(=O)N[C@@H](Cc1ccccc1)C(=O)N[C@H](C(=O)N[C@@H](CC(N)=O)C(=O)N[C@@H](CO)C(=O)N[C@@H](Cc1ccc(O)cc1)C(=O)N[C@@H](CCCNC(=N)N)C(=O)N[C@@H](CCCCN)C(=O)N[C@H](C(=O)N[C@@H](CC(C)C)C(=O)NCC(=O)N[C@@H](CCC(N)=O)C(=O)N[C@@H](CC(C)C)C(=O)N[C@@H](CO)C(=O)N[C@@H](C)C(=O)N[C@@H](CCCNC(=N)N)C(=O)N[C@@H](CCCCN)C(=O)N[C@@H](CC(C)C)C(=O)N[C@@H](CC(C)C)C(=O)N[C@@H](CCC(N)=O)C(=O)N[C@@H](CC(=O)O)C(=O)N[C@H](C(=O)N[C@@H](CCSC)C(=O)N[C@@H](CO)C(=O)N[C@@H](CCCNC(=N)N)C(N)=O)[C@@H](C)CC)C(C)C)[C@@H](C)O` [GHRH1-29, reference compound] as the compound, how does the “Max. response(%) (compared to baseline)” value ([1]; Table 3, independent experiment) read?
Its value is 112.97%.

Which potency in words [1] does the source give for “YaDAIFTASYROVLAQLSAROALQDC(Peg-2K)LSKN-NH2 (Y[dA]DAIFTASYR[Orn]VLAQLSAR[Orn]ALQDC(PEG 2 kDa)LSKN-NH2) [Analog 8 (C26), Cys26 conjugated to about 2 kDa PEG]” here?
Its potency in words is “reduced potency”.

Which “stimulation of GH secretion in words” value [2] does the source give for “YaDAIFTASYROVLAQLSAROALQDILC(Peg-2K)KN-NH2 (Y[dA]DAIFTASYR[Orn]VLAQLSAR[Orn]ALQDILC(PEG 2 kDa)KN-NH2) [Analog 1 (C28), GHRH analog with Cys28 conjugated to about 2 kDa PEG]” here?
The value was “potently stimulated GH secretion”.

Which “in vitro biological activity in words” value ([1]; Table 3 experiment) does the source give for “YaDAIFTAC(Peg-40K)YROVLAQLSAROALQDILS(Har)-NH2 (Y[dA]DAIFTAC(PEG 40 kDa)YR[Orn]VLAQLSAR[Orn]ALQDILS[hArg]-NH2) [Analog 16 (C9), Cys9 conjugated to about 40 kDa PEG, Har29]” here?
Its value is “without loss of in vitro biological activity”.
